Test [1] deals with MC4R(C319Ter), expressed from mCherry-2A-MC4R (human) (UniProt P32245).
Test [2] has as its target wild-type MC4R (melanocortin 4 receptor), expressed from mCherry-2A-MC4R (human) (UniProt P32245).
Test [3] addresses MC4R(L328Ter), expressed from mCherry-2A-MC4R (human) (UniProt P32245).

For α-MSH (peptide), the results for the EC50 of α-MSH induced cAMP production, pGloSensor luciferase cAMP assay in transfected HEK293 cells (dose-response, 10 min stimulation) in test [1], in test [2] and in test [3] were 2.7 nM, 2.5 nM and 3.3 nM, respectively.
